From PMC4977486, “A/T Run Geometry of B-form DNA Is Independent of Bound Methyl-CpG Binding Domain, Cytosine Methylation and Flanking Sequence”

What was measured:
MeCP2 MBD wild type = MeCP2 MBD wild type (UniProt P51608 78-163); test: EMSA; 2, 4, 8 uM protein; 1.8 uM DNA; 1.8 uM poly(dG-dC) competitor; reference; EMSA: 100 mM Tris-HCl pH 7.5, 500 mM KCl, 10 mM DTT, 1.8 uM poly(dG-dC), room temperature 30 min; 8% native PAGE in Tris-glycine pH 8.3 at 277 K; conditions: protein: recombinant; 5' overhang 1 nt on each strand (T and A), 19 bp
MeCP2 MBD-TRD wild type = MeCP2 MBD-TRD wild type (UniProt P51608 78-310); test: as above; conditions: protein: recombinant; 5' overhang 1 nt on each strand (T and A), 19 bp

B1: methylated BDNFProIII 20-mer (dsDNA)
DNA 1: TCTGGAACGGAATTCTTCTA
DNA 2: ATAGAAGAATTCCGTTCCAG
modifications: 5-methylcytosine at position 8 of strand 1 and position 13 of strand 2 (C33 in duplex numbering)
- binding signal (MeCP2 MBD wild type): 100 % of wild-type MBD complex
- binding signal (MeCP2 MBD-TRD wild type): 100 % of wild-type MBD-TRD complex
